This assay concerns hepatic encephalopathy model animal. Kind of assay: hepatic encephalopathy model rat (partial hepatectomy + ammonium acetate): coma period and plasma ammonia (Test Examples 1-3). As to conditions: for coma period / concentration of ammonia in the blood: mean ± standard error. It counts as in vivo. As for the experimental part:
A test drug was prepared by dissolving rat serum albumin (RSA, manufactured by Sigma Corp.) in an amino acid solution (components are disclosed in Table 3) to form a 0.1 w/v % or 1.0 w/v % solution, adding 1.0 N hydrochloric acid thereto to adjust the pH to 6.6 to 7.4 according to Preparation Example 3, filling the solution into a 500 ml infusion bottle and heating at 60° C. for 10 hours after sealing the bottle with a rubber plug. In comparison, physiological saline or the amino acid solution (pH 6.6 to 7.4), respectively, was used in the same way.
Rat partial hepatectomy was carried out by performing a laparotomy of a male SD rat (body weight of 200 to 230 g) under etherization, removing a lateral left lobe, a medial left lobe and a medial right lobe (67%) and closing the abdomen (Archs. Pathol., 1985; 12: 186-202).
A hepatic encephalopathy model animal was created by administering 2 M ammonium acetate solution at a rate of 3 ml/kg into the rat abdomen after 48 hours from the partial hepatectomy (“Kiso to Rinsho”, 1987; 21: 2509-2527).
The test drug was injected from the rat tail vein (10 ml/kg) 2 minutes before administering the ammonium solution. Subsequently, the coma period (minutes) was measured, blood was collected from the rat tail vein 30 minutes after administration of the ammonium solution, and the ammonia concentration in the blood plasma was determined by using an ammonia measuring reagent kit (brand name: Determiner NH3, manufactured by Kyowa Medics Corporation).
A test drug was prepared by dissolving human serum albumin (HSA, manufactured by Sigma Corp.) in the amino acid solution (components are disclosed in Table 3) in the same manner as in Preparation Example 3 to form a desired concentration of the solution (0.001, 0.01, 0.1 or 1.0 w/v %). 6 to 14 male SD rats (body weight 200 to 230 g) as test animals were used per one group, and creation of a hepatic encephalopathy model animal and a test method were carried out in the same manner as Test Example 1. The test drug was injected in an amount of 10 ml/kg from the tail vein.
A test drug was prepared by dissolving bovine serum albumin (BSA, manufactured by Sigma Corp.) in the amino acid solution (components bare disclosed in Table 3) in the same manner as in Preparation Example 3 to form a desired concentration of the solution (0.1 w/v % or 1.0 w/v %). Creation of a hepatic encephalopathy model animal and a test method were carried out in the same manner as Test Example 1.

From patent US6867193B1, “Amino acid-containing albumin preparation” (Nipro Corporation, priority 1999, dated 2005) come the findings set out here.

Regarding “1.0% BSA: bovine serum albumin (BSA, manufactured by Sigma Corp.), 1.0%, given alone”, where the note is “Test Example 3 (BSA)”, the coma period was determined as 23 ± 3 min and the “concentration of ammonia in the blood” value turned out to be 119 ± 10 µmol/dL.

B1: 1.0% RSA: rat serum albumin (RSA, manufactured by Sigma Corp.), 1.0% final concentration, given alone (protein, UniProt P02770 25-608, looked up)
Albumin: EAHKSEIAHRFKDLGEQHFKGLVLIAFSQYLQKCPYEEHIKLVQEVTDFAKTCVADENAENCDKSIHTLFGDKLCAIPKLRDNYGELADCCAKQEPERNECFLQHKDDNPNLPPFQRPEAEAMCTSFQENPTSFLGHYLHEVARRHPYFYAPELLYYAEKYNEVLTQCCTESDKAACLTPKLDAVKEKALVAAVRQRMKCSSMQRFGERAFKAWAVARMSQRFPNAEFAEITKLATDVTKINKECCHGDLLECADDRAELAKYMCENQATISSKLQACCDKPVLQKSQCLAEIEHDNIPADLPSIAADFVEDKEVCKNYAEAKDVFLGTFLYEYSRRHPDYSVSLLLRLAKKYEATLEKCCAEGDPPACYGTVLAEFQPLVEEPKNLVKTNCELYEKLGEYGFQNAVLVRYTQKAPQVSTPTLVEAARNLGRVGTKCCTLPEAQRLPCVEDYLSAILNRLCVLHEKTPVSEKVTKCCSGSLVERRPCFSALTVDETYVPKEFKAETFTFHSDICTLPDKEKQIKKQTALAELVKHKPKATEDQLKTVMGDFAQFVDKCCKAADKDNCFATEGPNLVARSKEALA
With B1, the “effect on the hepatic encephalopathy” value (Test Example 1, text on Table 4) was “no effect”. Also, the “concentration of ammonia in the blood” value (Test Example 1, blood plasma 30 min after ammonium solution, test drug 10 ml/kg tail vein) stood at 129 ± 13 µmol/dL. In addition, the coma period (Test Example 1, male SD rat, test drug 10 ml/kg tail vein 2 min before ammonium acetate) is 31 ± 5 min.
